This is an account of results in PMC10849960 (2023).

Ends that are not written are not given here.

Experiment [1] has as its target best parametrically designed PTH binder. As to the kind of experiment: split NanoBiT.
Experiment [2] deals with 361. The experiment is described as follows: FP.
Experiment [3] concerns the target 411. The experiment is described as follows: FP.
Experiment [4] addresses 29. As to the kind of experiment: FP.
For experiment [5], the target named is T1, Mcl-1 (UniProt Q07820 1-350).
T1 chain: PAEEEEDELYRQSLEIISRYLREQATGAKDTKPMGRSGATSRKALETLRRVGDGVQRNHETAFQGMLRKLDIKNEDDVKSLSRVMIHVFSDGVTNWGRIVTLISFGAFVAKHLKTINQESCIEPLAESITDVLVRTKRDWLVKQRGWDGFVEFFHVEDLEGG
As to the kind of experiment: FP.

Experiment [6] addresses Hallucinated Bid binder (7 nM). As to the kind of experiment: ITC. A general note: Isothermal titration calorimetry measures the heat released or taken up as one component is titrated into another.
In experiment [7] the target is 411. The experiment is described as follows: ITC.
Experiment [8] has as its target 29. As to the kind of experiment: ITC.
In experiment [9] the target is 361. As to the kind of experiment: ITC; 10 °C.
In experiment [10] the target is T1, Mcl-1. The experiment is described as follows: ITC.

B1: parathyroid hormone (PTH) (peptide)
peptide: SVSEIQLMHNLGKHLNSMERVEWLRKKLQDVHNF
modifications: also: fluorescently labelled (label and position not shown)
With B1, the Kd in [1] was greater than 1000 nM.

B2: Bid BH3 peptide (peptide)
peptide: SESQEDIIRNIARHLAQVGDSMDRSIPPGLVNGL
modifications: also: fluorescently labelled (label and position not shown)
As for B2, the Kd with 361 [2] was 490 nM; with 411 [3] it was 23 nM; with 29 [4] it was 40 nM; with Mcl-1 [5], 106 nM; in [6], 25 nM; with 411 [7], 410 nM. The Kd was determined as 180 nM in the experiment with 29 [8], 1200 nM with 361 [9] and 770 nM with Mcl-1 [10].

By Kd is commonly meant the concentration at which binding is half-saturated. Lower therefore signals a tighter complex.
